Measurements taken from patent US20050019801A1, “Stem cell-based methods for identifying and characterizing agents” (Curis, Inc., priority 2003, published 2005).
“Also recorded” adds a separate entry of the source.

B1: noggin: a BMP antagonist (protein, UniProt Q13253 28-232, looked up)
Noggin: QHYLHIRPAPSDNLPLVDLIEHPDPIFDPKEKDLNETLLRSLLGGHYDPGFMATSPPEDRPGGGGGAAGGAEDLAELDQLLRQRPSGAMPSEIKGLEFSEGLAQGKKQRLSKKLRRKLQMWLWSQTFCPVLYAWNDLGSRFWPRYVKVGSCFSKRSCSVPEGMVCKPSKSVHLTVLRWRCQRRGGQRCGWIPIQYPIISECKCSC
B2: PTN: a neurotrophic factor (protein, UniProt P21246 33-168, looked up)
Pleiotrophin: GKKEKPEKKVKKSDCGEWQWSVCVPTSGDCGLGTREGTRTGAECKQTMKTQRCKIPCNWKKQFGAECKYQFQAWGECDLNTALKTRTGSLKRALHNAECQKTVTISKPCGKLTKPKPQAESKKKKKEGKKQEKMLD
B3: sFRP2: a Wnt antagonist (protein, UniProt Q96HF1 25-295, looked up)
Secreted frizzled-related …: LFLFGQPDFSYKRSNCKPIPANLQLCHGIEYQNMRLPNLLGHETMKEVLEQAGAWIPLVMKQCHPDTKKFLCSLFAPVCLDDLDETIQPCHSLCVQVKDRCAPVMSAFGFPWPDMLECDRFPQDNDLCIPLASSDHLLPATEEAPKVCEACKNKNDDDNDIMETLCKNDFALKIKVKEITYINRDTKIILETKSKTIYKLNGVSERDLKKSVLWLKDSLQCTCEEMNDINAPYLVMGQKQGGELVITSVKRWQKGQREFKRISRSIRKLQC
B4: gremlin: a BMP antagonist (protein, UniProt O60565 25-184, looked up)
Gremlin-1: KKKGSQGAIPPPDKAQHNDSEQTQSPQQPGSRNRGRGQGRGTAMPGEEVLESSQEALHVTERKYLKRDWCKTQPLKQTIHEEGCNSRTIINRFCYGQCNSFYIPRHIRKEEGSFQSCSFCKPKKFTTMMVTLNCPELQPPTKKKRVTRVKQCRCISIDLD
B5: dkk1: a Wnt antagonist (protein, UniProt O94907 32-266, looked up)
Dickkopf-related protein 1: TLNSVLNSNAIKNLPPPLGGAAGHPGSAVSAAPGILYPGGNKYQTIDNYQPYPCAEDEECGTDEYCASPTRGGDAGVQICLACRKRRKRCMRHAMCCPGNYCKNGICVSSDQNHFRGEIEETITESFGNDHSTLDGYSRRTTLSSKMYHTKGQEGSVCLRSSDCASGLCCARHFWSKICKPVLKEGQVCTKHRRKGSHGLEIFQRCYCGEGLSCRIQKDHHQASNSSRLHTCQRH

Tests used:
[1] = test system: Mouse embryonic stem cells (embryoid bodies); test: Combinations of agents promoting motor neuron differentiation from embryoid bodies, HB9 expression; assay type: cell-based; conditions: agent plus the same sub-threshold concentration of small molecule hedgehog agonist (Ag1.3)
Experimental: BMP antagonists and Wnt antagonists synergized with hedgehog agonists to promote motor neuron differentiation from embryoid bodies. Briefly, mouse embryonic stem cells were cultured, as described above.

[2] = test system: (HB9-GFP)-mouse embryonic stem cells; test: Motor neuron differentiation of (HB9-GFP)-mouse embryonic stem cell embryoid bodies, GFP by fluorescent or confocal microscopy; assay type: cell-based; conditions: one day 100 nM RA and 50 ng/ml Sonic hedgehog protein, then three days with agent, fluorescent microscopy
Experimental: Briefly, mouse embryonic stem cells expressing GFP under the control of the HB9 promoter were cultured to confluence, trypsinized, and allowed to reaggregate to form embryoid bodies. The embryoid bodies were treated for one day with 100 nM RA and 50 ng/ml Sonic hedgehog protein. Subsequently, the embryoid bodies were cultured for three days with a previously identified hedgehog, small molecule agonist. Cultured embryoid bodies were analyzed by fluorescent and bright filed microscopy (FIG. 2).
As outlined above, the stem cell based methods of the invention can be used in many ways including, but not limited to, as a primary screen to identify agents that promote differentiation without regard to the mechanism of action; as a primary screen to identify agents that promote differentiation and that may act by agonizing or antagonizing a particular signaling pathway; or as a secondary screen to confirm that an agent that agonizes or antagonizes a particular signaling pathway also functions to promote differentiation along a particular lineage. […] Briefly, several small molecules were previously identified in a screen to identify agonists of the hedgehog signaling pathway. […] Mouse embryonic stem cells expressing GFP under the control of the HB9 promoter were cultured to confluence, trypsinized, and allowed to reaggregate to form embryoid bodies. The embryoid bodies were treated for one day with 100 nM RA and 50 ng/ml Sonic hedgehog protein. Subsequently, the embryoid bodies were cultured for three days with one of three previously identified hedgehog, small molecule agonists. Cultured embryoid bodies were analyzed by fluorescent microscopy for expression of GFP (FIG. 3).
Mouse embryonic stem cells were cultured and treated as described above. Following three days of culture in the presence of the hedgehog agonist, embryoid bodies were analyzed by confocal microscopy to allow analysis of sections throughout the embryoid body. Confocal images were compared to confocal images of embryoid bodies cultured in the absence of hedgehog agonist.
By way of example, known antagonists of BMP signaling include noggin, chordin, follistatin, cerberus, Dan, gremlin, ectodin, sclerostin, and ventroptin. Known antagonists of Wnt signaling include sFRP, WIF, dkk, and Cerberus. Briefly, mouse embryonic stem cells expressing GFP under the control of the HB9 promoter were cultured to confluence, trypsinized, and allowed to reaggregate to form embryoid bodies. The embryoid bodies were treated for one day with 100 nM RA and 50 ng/ml Sonic hedgehog protein. Subsequently, the embryoid bodies were cultured for three days with one of the following: 98 (a small molecule hedgehog agonist), chordin (a BMP antagonist), noggin (a BMP antagonist), gremlin (a BMP antagonist), Dan (a BMP antagonist), PTN (a neurotrophic factor), sFRP2 (a Wnt antagonist), dkk1 (a Wnt antagonist). Cultured embryoid bodies were analyzed by fluorescent microscopy for expression of GFP (FIG. 9).
Embryoid bodies were differentiated as described above for FIG. 9. […] Note, however, the morphological differences among cells types differentiated using each agent. Embryoid bodies treated with a Wnt antagonist were flatter than embryoid bodies treated with a BMP antagonist.

Row | Molecule | motor neuron differentiation, as measured by expression of HB9 [1] | motor neuron differentiation, as measured by expression of the HB9 promoter-driven transgene (GFP) [2] | motor neuron differentiation, as measured by expression of the HB9 promoter-driven transgene (GFP) ([2]; listed as sFRP)
1 | B1 | promoted motor neuron differentiation | robustly promoted motor neuron differentiation; also recorded: differentiated along a motor neuron lineage | 
2 | B2 |  | robustly promoted motor neuron differentiation | 
3 | B3 | promoted motor neuron differentiation | differentiated along a motor neuron lineage | robustly promoted motor neuron differentiation
4 | B4 | promoted motor neuron differentiation | robustly promoted motor neuron differentiation; also recorded: differentiated along a motor neuron lineage | 
5 | B5 |  | robustly promoted motor neuron differentiation; also recorded: differentiated along a motor neuron lineage | 
